Reference: article PMC3355152, “Crystal Structures of Lsm3, Lsm4 and Lsm5/6/7 from Schizosaccharomyces pombe”

T1: ScLsm3 (Saccharomyces cerevisiae, UniProt P57743 1-89)
T1 sequence: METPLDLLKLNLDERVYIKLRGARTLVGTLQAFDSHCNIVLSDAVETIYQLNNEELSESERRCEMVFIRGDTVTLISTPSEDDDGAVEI


Key:
ScLsm3 = molecular target: T1, ScLsm3; assay: SPR; 1 uM protein; FA: 20 mM Hepes pH 7.5, 100 mM NaCl, 25 C, 0.1 uM RNA; SPR (Biacore 3000): 20 mM Hepes pH 7.5, 100 mM NaCl, 25 C, 1 uM protein; conditions: protein: recombinant; tags: His6 removed by PreScission; chain copies: 8; label: 5' biotin; single strand
SpLsm5;SpLsm6;SpLsm7 = SpLsm5;SpLsm6;SpLsm7 (Schizosaccharomyces …, UniProt O42978;Q9UUI1;O74499 1-80;1-75;1-113, ||); assay: fluorescence anisotropy; FA: 20 mM Hepes pH 7.5, 100 mM NaCl, 25 C, 0.1 uM RNA; SPR (Biacore 3000): 20 mM Hepes pH 7.5, 100 mM NaCl, 25 C, 1 uM protein; conditions: protein: recombinant;recombinant;recombinant; tags: N-terminal His6;none;; chain copies: 2;2;2; label: 5' 6-FAM; single strand
SpLsm5;SpLsm6;SpLsm7, sequence (O42978 whole entry, chain 1 of 3): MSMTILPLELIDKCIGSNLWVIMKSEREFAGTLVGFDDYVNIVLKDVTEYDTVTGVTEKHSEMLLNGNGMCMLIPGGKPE
SpLsm5;SpLsm6;SpLsm7, sequence (Q9UUI1 whole entry, chain 2 of 3): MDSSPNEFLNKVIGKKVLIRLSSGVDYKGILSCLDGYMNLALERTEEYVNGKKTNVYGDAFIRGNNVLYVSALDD
SpLsm5;SpLsm6;SpLsm7, sequence (O74499 whole entry, chain 3 of 3): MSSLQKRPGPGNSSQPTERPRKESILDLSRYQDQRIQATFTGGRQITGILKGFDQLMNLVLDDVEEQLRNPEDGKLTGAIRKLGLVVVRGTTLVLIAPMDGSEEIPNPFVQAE

[1] = molecular target: SpLsm2 (of SpLsm2/3);SpLsm3 (of SpLsm2/3) (Schizosaccharomyces …, UniProt O94408;Q9Y7M4 1-96;1-93, |); assay: as above; conditions: protein: recombinant;recombinant; tags: N-terminal His6;none; label: 5' 6-FAM; single strand
SpLsm2 (of SpLsm2/3);SpLsm3 (of SpLsm2/3), sequence (O94408 whole entry, chain 1 of 2): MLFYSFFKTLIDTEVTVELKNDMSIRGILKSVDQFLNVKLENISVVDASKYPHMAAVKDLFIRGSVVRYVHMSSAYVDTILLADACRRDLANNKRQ
SpLsm2 (of SpLsm2/3);SpLsm3 (of SpLsm2/3), sequence (Q9Y7M4 whole entry, chain 2 of 2): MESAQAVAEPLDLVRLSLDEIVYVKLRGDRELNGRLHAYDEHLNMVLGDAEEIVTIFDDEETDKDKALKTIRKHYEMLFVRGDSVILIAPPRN

Binder	binding result (ScLsm3)	Kd (SpLsm5;SpLsm6;SpLsm7) [µM]	Kd [1] [µM]
UUUUUUUUUUUUUUU (ssRNA) [U15 (biotin)]	no binding		
UUUUUUUUUUUUUUU (ssRNA) [U15 (FAM)]		52.5 ± 10	4 ± 0.5
